Binding result and Kd data for five molecules are collected here from PMC9352719, “Interaction between transcribing RNA polymerase and topoisomerase I prevents R-loop formation in E. coli”.

For data set [1], the target named is T1, EcTopoI (topoisomerase I) (Escherichia coli DY330, UniProt P06612 1-865). Description: competition; vs labeled Consensus R; about as efficient as Consensus R; EMSA: 10 mM Tris-HCl pH 7.5, 50 mM NaCl, 6 mM MgCl2, 37 C 10 min; MST: same plus 0.05% Tween-20, 22 C. Conditions: protein: recombinant; single strand.
T1 sequence (P06612 whole entry): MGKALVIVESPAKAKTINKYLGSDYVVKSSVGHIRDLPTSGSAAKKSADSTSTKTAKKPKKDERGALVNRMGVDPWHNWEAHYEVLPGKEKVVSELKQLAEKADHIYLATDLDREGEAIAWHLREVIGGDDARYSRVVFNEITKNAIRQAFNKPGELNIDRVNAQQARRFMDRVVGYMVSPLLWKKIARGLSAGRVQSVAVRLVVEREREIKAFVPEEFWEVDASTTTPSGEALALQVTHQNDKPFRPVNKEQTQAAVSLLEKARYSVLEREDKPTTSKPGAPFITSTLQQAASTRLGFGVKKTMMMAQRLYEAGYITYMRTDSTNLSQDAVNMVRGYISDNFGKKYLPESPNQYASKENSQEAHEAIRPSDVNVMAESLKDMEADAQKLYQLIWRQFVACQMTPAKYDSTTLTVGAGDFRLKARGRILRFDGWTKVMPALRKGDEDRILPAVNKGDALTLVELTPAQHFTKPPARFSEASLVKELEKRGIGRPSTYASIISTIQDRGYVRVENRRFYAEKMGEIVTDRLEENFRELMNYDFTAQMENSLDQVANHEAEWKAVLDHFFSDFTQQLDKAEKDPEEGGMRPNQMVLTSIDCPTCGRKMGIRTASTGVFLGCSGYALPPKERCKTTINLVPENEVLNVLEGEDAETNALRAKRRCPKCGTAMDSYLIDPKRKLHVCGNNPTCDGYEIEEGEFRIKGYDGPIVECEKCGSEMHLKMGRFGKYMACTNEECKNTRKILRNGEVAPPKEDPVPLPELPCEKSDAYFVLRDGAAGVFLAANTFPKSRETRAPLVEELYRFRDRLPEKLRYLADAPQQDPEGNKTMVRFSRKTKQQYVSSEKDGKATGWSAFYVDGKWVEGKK
Data set [2] addresses T1, EcTopoI (topoisomerase I). Description: MST; 6 mM Mg2+; range for both random oligos; EMSA: 10 mM Tris-HCl pH 7.5, 50 mM NaCl, 6 mM MgCl2, 37 C 10 min; MST: same plus 0.05% Tween-20, 22 C. The settings on record: protein: recombinant; label: 5'-Cy5; single strand.
Data set [3] concerns the target T1, EcTopoI (topoisomerase I). Description: EMSA; 6 mM Mg2+; EMSA: 10 mM Tris-HCl pH 7.5, 50 mM NaCl, 6 mM MgCl2, 37 C 10 min; MST: same plus 0.05% Tween-20, 22 C. The settings on record: protein: recombinant; label: 5'-Cy5; single strand.

B1: Poly-A, unlabeled (ssDNA)
DNA: CGCAAAAAAAAAAAAAAAAAAAACGC
As for B1, the binding result in data set [1] is on record as “binds”.

B2: Random R (ssDNA)
DNA: CGCTCCGCACTGCGGATTACGTGCGC
On to B2, for which the Kd in data set [2] is approximately 324 nM.

B3: Consensus R (ssDNA)
DNA: CGCAAAAATAATGAAGAAAAAAACGC
For the molecule B3, the Kd in data set [3] is 207 ± 76 nM.

B4: Random F (ssDNA)
DNA: GCGCACGTAATCCGCAGTGCGGTGCG
B4: the dissociation constant Kd in data set [2] was approximately 324 nM.

B5: Consensus F (ssDNA)
DNA: GCGTTTTTTTCTTCATTATTTTTGCG
For B5, in data set [3], the Kd worked out at 190 ± 87 nM.
